{
  "source": "IntAct's records for PubMed 25910212",
  "parents": {"B1": {"name": "Lipopolysaccharide-induced tumor necrosis factor-alpha factor (Homo sapiens), Q99732 (parent)", "chain": "MSVPGPYQAATGPSSAPSAPPSYEETVAVNSYYPTPPAPMPGPTTGLVTGPDGKGMNPPSYYTQPAPIPNNNPITVQTVYVQHPITFLDRPIQMCCPSCNKMIVSQLSYNAGALTWLSCGSLCLLGCIAGCCFIPFCVDALQDVDHYCPNCRALLGTYKRL"}, "B2": {"name": "Adiponectin (Homo sapiens), Q15848 (parent)", "chain": "MLLLGAVLLLLALPGHDQETTTQGPGVLLPLPKGACTGWMAGIPGHPGHNGAPGRDGRDGTPGEKGEKGDPGLIGPKGDIGETGVPGAEGPRGFPGIQGRKGEPGEGAYVYRSAFSVGLETYVTIPNMPIRFTKIFYNQQNHYDGSTGKFHCNIPGLYYFAYHITVYMKDVKVSLFKKDKAMLFTYDQYQENNVDQASGSVLLHLEVGDQVWLQVYGEGERNGLYADNDNDSTFTGFLLYHDTN", "partner": "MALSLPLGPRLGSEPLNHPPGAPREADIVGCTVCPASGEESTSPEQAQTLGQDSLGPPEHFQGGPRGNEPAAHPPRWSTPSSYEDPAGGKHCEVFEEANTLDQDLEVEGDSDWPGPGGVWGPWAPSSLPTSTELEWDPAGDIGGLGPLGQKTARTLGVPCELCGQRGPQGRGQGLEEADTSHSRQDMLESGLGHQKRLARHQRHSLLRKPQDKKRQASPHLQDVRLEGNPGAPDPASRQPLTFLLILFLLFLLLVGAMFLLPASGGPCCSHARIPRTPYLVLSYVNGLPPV"}, "B3": {"name": "Retinoic acid receptor RXR-gamma (Homo sapiens), P48443 (parent)", "chain": "MYGNYSHFMKFPAGYGGSPGHTGSTSMSPSAALSTGKPMDSHPSYTDTPVSAPRTLSAVGTPLNALGSPYRVITSAMGPPSGALAAPPGINLVAPPSSQLNVVNSVSSSEDIKPLPGLPGIGNMNYPSTSPGSLVKHICAICGDRSSGKHYGVYSCEGCKGFFKRTIRKDLIYTCRDNKDCLIDKRQRNRCQYCRYQKCLVMGMKREAVQEERQRSRERAESEAECATSGHEDMPVERILEAELAVEPKTESYGDMNMENSTNDPVTNICHAADKQLFTLVEWAKRIPHFSDLTLEDQVILLRAGWNELLIASFSHRSVSVQDGILLATGLHVHRSSAHSAGVGSIFDRVLTELVSKMKDMQMDKSELGCLRAIVLFNPDAKGLSNPSEVETLREKVYATLEAYTKQKYPEQPGRFAKLLLRLPALRSIGLKCLEHLFFFKLIGDTPIDTFLMEMLETPLQIT", "partner": "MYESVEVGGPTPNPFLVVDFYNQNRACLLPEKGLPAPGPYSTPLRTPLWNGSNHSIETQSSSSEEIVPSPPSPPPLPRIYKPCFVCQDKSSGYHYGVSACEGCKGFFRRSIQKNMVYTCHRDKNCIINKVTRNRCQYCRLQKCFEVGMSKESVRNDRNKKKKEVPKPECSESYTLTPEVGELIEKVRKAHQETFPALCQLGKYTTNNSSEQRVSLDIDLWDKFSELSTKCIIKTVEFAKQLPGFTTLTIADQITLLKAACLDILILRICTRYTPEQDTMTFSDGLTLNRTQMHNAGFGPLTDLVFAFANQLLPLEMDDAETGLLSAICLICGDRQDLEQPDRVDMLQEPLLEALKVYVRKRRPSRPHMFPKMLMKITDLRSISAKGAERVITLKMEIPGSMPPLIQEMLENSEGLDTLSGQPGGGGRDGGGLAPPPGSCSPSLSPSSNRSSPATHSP"}, "B4": {"name": "Alpha-crystallin B chain (Homo sapiens), P02511 (parent)", "chain": "MDIAIHHPWIRRPFFPFHSPSRLFDQFFGEHLLESDLFPTSTSLSPFYLRPPSFLRAPSWFDTGLSEMRLEKDRFSVNLDVKHFSPEELKVKVLGDVIEVHGKHEERQDEHGFISREFHRKYRIPADVDPLTITSSLSSDGVLTVNGPRKQVSGPERTIPITREEKPAVTAAPKK", "partner": "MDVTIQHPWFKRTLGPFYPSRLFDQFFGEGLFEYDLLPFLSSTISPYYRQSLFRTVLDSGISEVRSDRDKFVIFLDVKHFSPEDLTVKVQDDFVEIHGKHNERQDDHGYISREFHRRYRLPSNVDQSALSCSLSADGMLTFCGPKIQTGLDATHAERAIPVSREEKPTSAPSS"}, "B5": {"name": "U4/U6 small nuclear ribonucleoprotein Prp31 (Homo sapiens), Q8WWY3 (parent)", "chain": "MSLADELLADLEEAAEEEEGGSYGEEEEEPAIEDVQEETQLDLSGDSVKTIAKLWDSKMFAEIMMKIEEYISKQAKASEVMGPVEAAPEYRVIVDANNLTVEIENELNIIHKFIRDKYSKRFPELESLVPNALDYIRTVKELGNSLDKCKNNENLQQILTNATIMVVSVTASTTQGQQLSEEELERLEEACDMALELNASKHRIYEYVESRMSFIAPNLSIIIGASTAAKIMGVAGGLTNLSKMPACNIMLLGAQRKTLSGFSSTSVLPHTGYIYHSDIVQSLPPDLRRKAARLVAAKCTLAARVDSFHESTEGKVGYELKDEIERKFDKWQEPPPVKQVKPLPAPLDGQRKKRGGRRYRKMKERLGLTEIRKQANRMSFGEIEEDAYQEDLGFSLGHLGKSGSGRVRQTQVNEATKARISKTLQRTLQKQSVVYGGKSTIRDRSSGTASSVAFTPLQGLEIVNPQAAEKKVAEANQKYFSSMAEFLKVKGEKSGLMST", "partner": "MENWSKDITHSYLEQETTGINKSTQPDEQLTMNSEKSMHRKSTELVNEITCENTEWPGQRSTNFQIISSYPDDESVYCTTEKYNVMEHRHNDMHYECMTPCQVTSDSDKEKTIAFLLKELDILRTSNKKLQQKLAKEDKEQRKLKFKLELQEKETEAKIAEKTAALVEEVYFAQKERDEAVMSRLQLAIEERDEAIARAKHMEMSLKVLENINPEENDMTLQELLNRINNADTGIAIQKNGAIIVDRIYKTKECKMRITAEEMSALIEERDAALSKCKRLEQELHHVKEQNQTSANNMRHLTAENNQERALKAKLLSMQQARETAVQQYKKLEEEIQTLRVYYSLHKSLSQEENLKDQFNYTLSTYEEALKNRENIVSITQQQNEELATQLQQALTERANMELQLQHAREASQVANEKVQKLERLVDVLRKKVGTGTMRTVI"}},
  "data": [
    {"variants_of": "B1", "conditions": "with UBQLN1, Q9UMX0-2", "values": [
      {"variant": "A111G", "effect of a mutation on the interaction": "disrupting interaction strength"},
      {"variant": "I92V", "effect of a mutation on the interaction": "with no effect"},
      {"variant": "G112S", "effect of a mutation on the interaction": "disrupting interaction strength"}
    ]},
    {"variants_of": "B1", "conditions": "with stam2_human STAM2, O75886", "values": [
      {"variant": "A111G", "effect of a mutation on the interaction": "disrupting interaction strength"},
      {"variant": "I92V", "effect of a mutation on the interaction": "with no effect"},
      {"variant": "G112S", "effect of a mutation on the interaction": "disrupting interaction strength"}
    ]},
    {"variants_of": "B1", "conditions": "with reep6_human REEP6, Q96HR9", "values": [
      {"variant": "A111G", "effect of a mutation on the interaction": "disrupting interaction strength"},
      {"variant": "I92V", "effect of a mutation on the interaction": "with no effect"},
      {"variant": "G112S", "effect of a mutation on the interaction": "disrupting interaction strength"}
    ]},
    {"variants_of": "B1", "conditions": "with hgs_human HGS", "values": [
      {"variant": "A111G", "effect of a mutation on the interaction": "disrupting interaction strength"},
      {"variant": "I92V", "effect of a mutation on the interaction": "with no effect"},
      {"variant": "G112S", "effect of a mutation on the interaction": "disrupting interaction strength"}
    ]},
    {"variants_of": "B1", "conditions": "with OPTN", "values": [
      {"variant": "A111G", "effect of a mutation on the interaction": "disrupting interaction strength"},
      {"variant": "I92V", "effect of a mutation on the interaction": "with no effect"},
      {"variant": "G112S", "effect of a mutation on the interaction": "disrupting interaction strength"}
    ]},
    {"variants_of": "B2", "conditions": "with SYNE4, Q8N205-2", "values": [
      {"variant": "Y111H", "effect of a mutation on the interaction": "with no effect"},
      {"variant": "I164T", "effect of a mutation on the interaction": "with no effect"}
    ]},
    {"variants_of": "B3", "conditions": "with RARA", "values": [
      {"variant": "G14S", "effect of a mutation on the interaction": "with no effect"}
    ]},
    {"variants_of": "B4", "conditions": "with cryaa_human CRYAA", "values": [
      {"variant": "P20S", "effect of a mutation on the interaction": "with no effect"},
      {"variant": "R56W", "effect of a mutation on the interaction": "with no effect"},
      {"variant": "R120G", "effect of a mutation on the interaction": "with no effect"},
      {"variant": "D140N", "effect of a mutation on the interaction": "with no effect"}
    ]},
    {"variants_of": "B5", "conditions": "with mipo1_human MIPOL1, Q8TD10", "values": [
      {"variant": "L107V", "effect of a mutation on the interaction": "with no effect"}
    ]}
  ]
}
